From article PMC10802472 (bioRxiv, 2024)
Substitutions are numbered along the chain they refer to.

B1: ACAD11 K* mutant (kinase-inactive mouse ACAD11) (enzyme, UniProt Q80XL6 1-779, looked up)
chain: METDVTSDTVEVLPQHKFDLRSLEAYLNQHLPGFGSDSRAVLTVTQYRSGQSNPTFFLQKGSQAYVLRKKPPGSLLPKAHKIDREFKIQKALFSIGFPVAKPLLYCRDASVIGTEFYVMEHVQGRIFRDFSIPGVSSAERAAIYVSVAETLAWLHSLDIRSLKLDKYGTGVGYCKRQVSTWTKQYQASAHQSIPAMDQLSTWLMKNLPDSDSEECLVHGAFKLDNIVFHPKECRVIAVLDWELSTFGHPLTDLAHLSLFYYWPRTLPMINRGSHIPENTGIPLMEELISIYCHRRGIDPNLPNWNFFMALSFFKLAGISQGVYRRYLMGNNSSEDSFLTANTVQPLAETGLQLSKRTLRTTPPQADAKSQLFAQSRRGQEVLTRVKQFMKQHVFPAEKEVAEYYAQSGNSAEKWGHPLVIEKLKEMAKAEGLWNLFLPAVSGLSQVDYALIAEETGKCFFAPDVFNCQAPDTGNMEVLHLYGSEQQKKQWLEPLLRGDITSVFCMTEPNVSSSDATNIECTIQRDGGGYIVNGKKWWSSGAGNPKCKIAIVLGRTESPSASRHRQHSMILVPMDTPGVELIRPLSVFGYMDNMHGGHWEVHFNHVRVPASNLILGEGRGFEISQGRLGPGRIHHCMRTVGLAERILQIMCDRAVQREAFKKKLYEHEVVAHWIAKSRIAIEEIRLLTLKAAHSIDTLGSASARKEIAMIKVAAPKAVCKIADWAIQVHGGAGVSQDYPLANMYAIIRTLRLADGPDEVHLSAIAKMELQDQARRLTARM
B2: ACAD11 A* mutant (ACAD-inactive mouse ACAD11) (enzyme, UniProt Q80XL6 1-779, looked up)
chain: B1 chain with A220D, D753N

Biological target: the molecule itself
Assay: cryo-EM structure

Row | Protein | stoichiometry N
1 | B1 | 4
2 | B2 | 4
